From US20120316071A1 (published 2012) come the findings set out here.

Assay [1] addresses T1, rHuman IGF-1 sR, CF (R&D Systems Cat#391-GR) (human, UniProt P08069 31-932).
T1 construct: Bought soluble receptor; The column head prints only 'IGF-1'; also called insulin-like growth factor-1 soluble receptor
The assay can be described thus: ECL multispot (MSD) assay, spotted antigen; Fab 0.20 (head prints uM).

Assay [2] deals with T2, rHuman Erythropoietin R/Fc Chimera, CF (R&D Systems Cat#963-ER) (human, UniProt P19235 25-250).
T2 construct: Bought recombinant protein; also called EPO R; EPO R/Fc; Fc part of the bought chimera not given
T2 sequence (looked up): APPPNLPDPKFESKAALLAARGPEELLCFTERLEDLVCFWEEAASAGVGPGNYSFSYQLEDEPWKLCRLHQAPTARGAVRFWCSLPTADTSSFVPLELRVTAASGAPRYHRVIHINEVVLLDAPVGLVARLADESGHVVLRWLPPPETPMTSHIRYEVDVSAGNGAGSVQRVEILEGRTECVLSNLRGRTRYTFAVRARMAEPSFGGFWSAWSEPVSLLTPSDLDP
The description is as above.

Assay [3] addresses T3, rHuman EGF R/Fc Chimera, CF (R&D Systems Cat#344-ER) (human, UniProt P00533 25-645).
T3 construct: Bought recombinant protein; Fc part of the bought chimera not given
The description is as above.

Assay [4] deals with T4, rHuman Notch-1/Fc Chimera, CF (R&D Systems Cat#3647-TK) (human, UniProt P46531 19-526).
T4 construct: Bought recombinant protein; Fc part of the bought chimera not given
The description is as above.

Assay [5] addresses T5, Recombinant Human DLL4 (R&D Systems Cat#1506-D4/CF) (human, UniProt Q9NR61 27-524).
T5 construct: Bought recombinant protein; also called delta-like protein 4
Described as above.

The target of assay [6] is T6, rHuman ErbB2/Fc Chimera, CF (R&D Systems Cat#1129-ER) (human, UniProt P04626 23-652).
T6 construct: Bought recombinant protein; Fc part of the bought chimera not given
The description is as above.

The target in assay [7] is T7, rHuman CD44/Fc Chimera, CF (R&D Systems Cat#3660-CD) (human, UniProt P16070 21-220).
T7 construct: Bought recombinant protein; Fc part of the bought chimera not given
The assay is described as above.

The target of assay [8] is T1, rHuman IGF-1 sR, CF (R&D Systems …). The assay can be described thus: ECL multispot (MSD) assay, spotted antigen; Fab 200.00 (head prints uM).
Assay [9] deals with T2, rHuman Erythropoietin R/Fc Chimera, CF …. Described as above.
Assay [10] deals with T3, rHuman EGF R/Fc Chimera, CF (R&D …). The assay is described as above.
The target of assay [11] is T4, rHuman Notch-1/Fc Chimera, CF (R&D …). Described as above.
In assay [12] the target is T5, Recombinant Human DLL4 (R&D Systems …). Described as above.
In assay [13] the target is T6, rHuman ErbB2/Fc Chimera, CF (R&D …). The description is as above.
Assay [14] deals with T7, rHuman CD44/Fc Chimera, CF (R&D Systems …). The assay is described as above.
The target of assay [15] is T1, rHuman IGF-1 sR, CF (R&D Systems …). Briefly: ECL multispot (MSD) assay, spotted antigen; Fab 2.00 (head prints uM).
Assay [16] concerns the target T2, rHuman Erythropoietin R/Fc Chimera, CF …. The description is as above.
Assay [17] concerns the target T3, rHuman EGF R/Fc Chimera, CF (R&D …). The assay is described as above.
The target of assay [18] is T4, rHuman Notch-1/Fc Chimera, CF (R&D …). The assay is described as above.
The target of assay [19] is T5, Recombinant Human DLL4 (R&D Systems …). Described as above.
For assay [20], the target named is T6, rHuman ErbB2/Fc Chimera, CF (R&D …). The description is as above.
In assay [21] the target is T7, rHuman CD44/Fc Chimera, CF (R&D Systems …). Described as above.
Assay [22] addresses T1, rHuman IGF-1 sR, CF (R&D Systems …). The assay can be described thus: ECL multispot (MSD) assay, spotted antigen; Fab 20.00 (head prints uM).
Assay [23] deals with T2, rHuman Erythropoietin R/Fc Chimera, CF …. The assay is described as above.
Assay [24] deals with T3, rHuman EGF R/Fc Chimera, CF (R&D …). The assay is described as above.
Assay [25] has as its target T4, rHuman Notch-1/Fc Chimera, CF (R&D …). Described as above.
In assay [26] the target is T5, Recombinant Human DLL4 (R&D Systems …). The description is as above.
Assay [27] has as its target T6, rHuman ErbB2/Fc Chimera, CF (R&D …). The assay is described as above.
For assay [28], the target named is T7, rHuman CD44/Fc Chimera, CF (R&D Systems …). Described as above.
Assay [29] addresses T8, Recombinant Human DLL4 (delta-like protein 4) (human, UniProt Q9NR61 27-524).
T8 construct: Bought recombinant human DLL4 (R&D Systems Cat#1506-D4/CF); also called rHuman DLL4; Delta-like 4
The assay can be described thus: ECL (MSD electrochemiluminescence) binding assay, Fab on immobilised recombinant human DLL4.

The target of assay [30] is T8, Recombinant Human DLL4 (delta-like …). Briefly: ELISA, Fab on coated recombinant human DLL4, signal minus noise.
Assay [31] addresses T9, rHuman Erythropoietin R/Fc Chimera, CF (R&D Systems Cat#963-ER) (human, UniProt P19235 25-250).
T9 construct: Bought recombinant Fc chimera; also called EPO R; EPO R/Fc; Fc part of the bought chimera not given
T9 sequence (looked up): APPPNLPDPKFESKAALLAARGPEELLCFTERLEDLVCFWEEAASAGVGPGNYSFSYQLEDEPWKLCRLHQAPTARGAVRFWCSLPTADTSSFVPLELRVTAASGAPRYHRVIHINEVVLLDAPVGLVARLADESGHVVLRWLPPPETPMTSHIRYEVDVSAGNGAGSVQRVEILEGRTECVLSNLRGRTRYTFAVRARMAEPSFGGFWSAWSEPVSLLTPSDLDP
The assay can be described thus: MSD Multispot ECL, antigen spotted on plate, Fab in solution; blank spot of the row 240.

Assay [32] concerns the target T10, rHuman EGF R/Fc Chimera, CF (R&D Systems Cat#344-ER) (human, UniProt P00533 25-645).
T10 construct: Bought recombinant Fc chimera; also called epidermal growth factor receptor; Fc part of the bought chimera not given
The description is as above.

Assay [33] has as its target T11, rHuman Notch-1/Fc Chimera, CF (R&D Systems Cat#3647-TK) (human, UniProt P46531 19-526).
T11 construct: Bought recombinant Fc chimera; Fc part of the bought chimera not given
The assay is described as above.

Assay [34] addresses T12, rHuman HGF R/c-MET/Fc Chimera, CF (R&D Systems Cat#358-MT/CF) (human, UniProt P08581 25-932).
T12 construct: Bought recombinant Fc chimera; also called HGF R/Fc; hepatocyte growth factor receptor; Fc part of the bought chimera not given
Described as above.

Assay [35] has as its target T13, rHuman P-Cadherin/Fc Chimera, CF (R&D Systems Cat#861-PC) (human, UniProt P22223 108-654).
T13 construct: Bought recombinant Fc chimera; Fc part of the bought chimera not given
Described as above.

T12 sequence (P08581 25-932, change not shown): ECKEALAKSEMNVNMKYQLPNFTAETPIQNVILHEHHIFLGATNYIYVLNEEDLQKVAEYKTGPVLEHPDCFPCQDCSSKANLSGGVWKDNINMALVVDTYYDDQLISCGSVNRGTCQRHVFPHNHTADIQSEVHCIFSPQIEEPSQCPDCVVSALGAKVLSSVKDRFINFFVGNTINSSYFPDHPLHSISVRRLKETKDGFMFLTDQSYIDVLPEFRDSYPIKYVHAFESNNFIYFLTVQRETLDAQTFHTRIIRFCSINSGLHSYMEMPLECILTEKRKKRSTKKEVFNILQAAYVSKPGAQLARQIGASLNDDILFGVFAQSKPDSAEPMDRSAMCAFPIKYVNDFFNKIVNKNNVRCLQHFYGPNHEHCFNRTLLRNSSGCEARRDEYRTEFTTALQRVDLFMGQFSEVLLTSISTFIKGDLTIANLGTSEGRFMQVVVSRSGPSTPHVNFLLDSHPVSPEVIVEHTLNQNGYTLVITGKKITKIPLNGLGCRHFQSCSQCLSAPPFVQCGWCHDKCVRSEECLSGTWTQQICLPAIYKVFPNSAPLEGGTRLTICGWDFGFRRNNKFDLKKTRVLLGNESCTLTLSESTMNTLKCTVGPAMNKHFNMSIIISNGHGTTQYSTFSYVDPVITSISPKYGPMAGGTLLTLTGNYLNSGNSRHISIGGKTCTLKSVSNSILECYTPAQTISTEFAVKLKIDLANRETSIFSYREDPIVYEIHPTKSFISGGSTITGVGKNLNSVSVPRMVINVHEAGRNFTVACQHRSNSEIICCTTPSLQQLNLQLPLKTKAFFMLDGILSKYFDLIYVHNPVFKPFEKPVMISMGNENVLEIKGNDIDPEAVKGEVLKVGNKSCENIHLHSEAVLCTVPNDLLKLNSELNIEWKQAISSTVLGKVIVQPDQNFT

B1: Fab VH5-51_IGHD5-18*01>3_IGHJ4*01 & V3-4_IGLJ1*01 (Fab, V domains shown)
VH: EVQLVQSGAEVKKPGESLKISCKGSGYSFTSYWIGWVRQMPGKGLEWMGIIYPGDSDTRYSPSFQGQVTISADKSISTAYLQWSSLKASDTAMYYCARRGYSYGYDYFDYWGQGTLVTVSS
VL: QTVVTQEPSFSVSPGGTVTLTCGLSSGSVSTSYYPSWYQQTPGQAPRTLIYSTNTRSSGVPDRFSGSILGNKAALTITGAQADDESDYYCVLYMGSGISYVFGTGTKVTVL
notes: Tested as a Fab made in E. coli; The heavy chain vector (Plasmid A) adds CH1 with His6 and Flag tags, and the lambda light chain vector (Plasmid E) adds CL; also called Wt; wildtype
As for B1, the ECL signal/noise ratio in assay [1] worked out at 2.9; in [2], 2.5; in assay [3], 3.4; in assay [4], 1.7; in assay [5] it was 3; in assay [6], 2.6. Also, the ECL signal/noise ratio worked out at 1.4 in assay [7]; 2.8 in assay [8]; 2.2 in [9]; 2.9 in assay [10]; 1.3 in [11]; 36.3 in assay [12]. Moreover, the ECL signal/noise ratio in [13] is 3.1; in assay [14], 1.6; in assay [15], 1.6; in assay [16], 1.2; in assay [17], 1.1; in [18], 1.5. For the same molecule, the ECL signal/noise ratio came out at 2.2 in [19]; 1.8 in [20]; 1.1 in assay [21]; 1.8 in assay [22]; 2 in assay [23]; 2.5 in assay [24]. Also, the ECL signal/noise ratio was 1.6 in [25], 21.1 in assay [26], 4.4 in assay [27] and 2.6 in assay [28].

B2: Fab VH5-51_IGHD5-18*01>3_IGHJ4*01 G100K/G104T/T58A & V3-4_IGLJ1*01 (Fab, V domains shown)
VH: EVQLVQSGAEVKKPGESLKISCKGSGYSFTSYWIGWVRQMPGKGLEWMGIIYPGDSDARYSPSFQGQVTISADKSISTAYLQWSSLKASDTAMYYCARRKYSYTYDYFDYWGQGTLVTVSS
VL: QTVVTQEPSFSVSPGGTVTLTCGLSSGSVSTSYYPSWYQQTPGQAPRTLIYSTNTRSSGVPDRFSGSILGNKAALTITGAQADDESDYYCVLYMGSGISYVFGTGTKVTVL
notes: Fab expressed in E. coli: VH joined to CH1 (Plasmid A, His6 and Flag tags), VL joined to lambda CL (Plasmid E); also called H:KT T58A
Turning to B2, the “ECL signal” value in [29] came to 12900. The “ELISA (Signal-Noise)” value in assay [30] was 0.07.

B3: Fab VH5-51_IGHD5-18*01>3_IGHJ4*01 G100K/G104T W33A & V3-4_IGLJ1*01 (Fab, V domains shown)
VH: EVQLVQSGAEVKKPGESLKISCKGSGYSFTSYAIGWVRQMPGKGLEWMGIIYPGDSDTRYSPSFQGQVTISADKSISTAYLQWSSLKASDTAMYYCARRKYSYTYDYFDYWGQGTLVTVSS
VL: QTVVTQEPSFSVSPGGTVTLTCGLSSGSVSTSYYPSWYQQTPGQAPRTLIYSTNTRSSGVPDRFSGSILGNKAALTITGAQADDESDYYCVLYMGSGISYVFGTGTKVTVL
notes: Fab made in E. coli; VH cloned into Plasmid A (CH1, His6 and Flag tags), lambda VL into Plasmid E (lambda CL); also called KT W33A
B3: the ECL signal in assay [31] came to 424; in assay [32], 761; in [33] it was 561; in assay [34] it was 735; in assay [35], 302.
